# Values quoted from earlier work, collected in PMC11195831.
# Biological target: PD-1 (Homo sapiens) (UniProt Q15116)
# Assay: SPR
# Sequence of PD-1 (Homo sapiens) (Q15116 25-170): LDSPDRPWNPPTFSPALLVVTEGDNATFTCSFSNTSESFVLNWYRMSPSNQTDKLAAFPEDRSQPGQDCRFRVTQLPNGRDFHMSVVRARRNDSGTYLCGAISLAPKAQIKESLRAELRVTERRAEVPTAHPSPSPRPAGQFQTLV
row,Substance,Kd
1,Retifanlimab,0.6 nM
2,Dostarlimab,0.3 nM
